According to patent US20040072736A1 (Boehringer Ingelheim, published 2004):
Bridges are numbered along the chain shown (N, C = ends).

B1: bicyclic nonadecapeptide of Example 1 (SEQ ID NO. 5), free acid (R = H) (peptide)
peptide: GLPWGCPSDIPGWNTPWAC-OH
modifications: disulfide 6-19; lactam N-9
SMILES: CC[C@H](C)[C@@H]1NC(=O)[C@@H]2CC(=O)NCC(=O)N[C@@H](CC(C)C)C(=O)N3CCC[C@H]3C(=O)N[C@@H](Cc3c[nH]c4ccccc34)C(=O)NCC(=O)N[C@@H](CSSC[C@@H](C(=O)O)NC(=O)[C@H](C)NC(=O)[C@H](Cc3c[nH]c4ccccc34)NC(=O)[C@@H]3CCCN3C(=O)[C@H]([C@@H](C)O)NC(=O)[C@H](CC(N)=O)NC(=O)[C@H](Cc3c[nH]c4ccccc34)NC(=O)CNC(=O)[C@@H]3CCCN3C1=O)C(=O)N1CCC[C@H]1C(=O)N[C@@H](CO)C(=O)N2
B2: methyl ester of the bicyclic nonadecapeptide of Example 1 (peptide)
peptide: GLPWGCPSDIPGWNTPWAC-OMe
modifications: disulfide 6-19; lactam N-9
SMILES: CC[C@H](C)[C@@H]1NC(=O)[C@@H]2CC(=O)NCC(=O)N[C@@H](CC(C)C)C(=O)N3CCC[C@H]3C(=O)N[C@@H](Cc3c[nH]c4ccccc34)C(=O)NCC(=O)N[C@@H](CSSC[C@@H](C(=O)OC)NC(=O)[C@H](C)NC(=O)[C@H](Cc3c[nH]c4ccccc34)NC(=O)[C@@H]3CCCN3C(=O)[C@H]([C@@H](C)O)NC(=O)[C@H](CC(N)=O)NC(=O)[C@H](Cc3c[nH]c4ccccc34)NC(=O)CNC(=O)[C@@H]3CCCN3C1=O)C(=O)N1CCC[C@H]1C(=O)N[C@@H](CO)C(=O)N2

Biological target: T1, human glucagon receptor (human, UniProt P47871 26-477)
T1 construct: whole, on cells; The assay used plasma membranes from stably transfected BHK-21 cells; also called cloned human glucagon receptor
Test: competition radioligand binding; displacement of 125I-glucagon from BHK-21 membranes with the human glucagon receptor; filtration
Description: Binding of peptides to the glucagon receptor was assayed in a competition binding-assay using a membrane fraction containing the cloned human glucagon receptor and radiolabeled glucagon.
For measuring competition with glucagon binding, 20 μg of the membrane suspension were incubated for 60 minutes in covered microtiter plates (Optiplate, Packard Instruments) with 50.000 cpm 125I-glucagon (Amersham Pharmacia), and one concentration of the test compound in a total volume of 100 μl. The protein-bound radioactivity is separated from unbound ligand by filtration and washing on a Multiscreen-Vakuumfiltrationsystem (Millipore) using GC/B filters (Packard) and measured after addition of 20 μl Microscint 20 in a topcount scintillation counter (Packard). The non-specific binding is defined as radioactivity bound in the presence of 1 μM glucagon (Wherl GmbH).

T1 sequence (P47871 26-477): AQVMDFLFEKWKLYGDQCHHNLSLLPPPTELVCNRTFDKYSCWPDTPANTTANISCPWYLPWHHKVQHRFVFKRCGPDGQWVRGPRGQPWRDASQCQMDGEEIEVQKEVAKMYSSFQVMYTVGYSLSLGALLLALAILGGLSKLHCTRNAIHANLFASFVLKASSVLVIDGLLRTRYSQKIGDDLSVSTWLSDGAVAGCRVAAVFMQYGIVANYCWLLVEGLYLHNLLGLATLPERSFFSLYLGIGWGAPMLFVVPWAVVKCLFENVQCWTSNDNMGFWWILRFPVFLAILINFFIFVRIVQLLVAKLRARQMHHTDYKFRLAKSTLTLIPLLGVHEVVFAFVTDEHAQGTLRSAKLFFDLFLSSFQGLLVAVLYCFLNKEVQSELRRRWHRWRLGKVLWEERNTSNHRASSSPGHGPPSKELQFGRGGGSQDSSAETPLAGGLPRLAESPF

Binder	IC50
B1	100 nM
B2	135 nM
